In US20050234221A1:

Biological target: IL-17 receptor like polypeptide on human B-lymphoblast cell line GM3104A (human) (UniProt Q9NRM6)
Experiment: cell-based or functional assay

Sequence of recombinant human IL-17E-Fc fusion protein (chain): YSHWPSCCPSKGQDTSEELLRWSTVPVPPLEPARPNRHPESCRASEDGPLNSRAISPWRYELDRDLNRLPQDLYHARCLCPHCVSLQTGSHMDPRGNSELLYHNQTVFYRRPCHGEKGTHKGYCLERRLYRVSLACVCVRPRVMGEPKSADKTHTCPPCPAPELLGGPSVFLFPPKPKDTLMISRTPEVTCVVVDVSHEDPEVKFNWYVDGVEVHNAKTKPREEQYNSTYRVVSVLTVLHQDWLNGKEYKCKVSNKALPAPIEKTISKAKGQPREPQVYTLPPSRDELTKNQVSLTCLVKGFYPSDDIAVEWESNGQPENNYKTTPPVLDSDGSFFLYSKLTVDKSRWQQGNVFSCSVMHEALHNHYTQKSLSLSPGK

**Q.** For “recombinant human IL-17E-Fc fusion protein”, which IL-1α (pg/ml) released by GM3104A cells is on record?
**A.** 25 pg/mL

**Q.** What about the IL-6 (pg/ml) released by GM3104A cells of the same substance?
**A.** 362 pg/mL

**Q.** What about the TNF-α (pg/ml) released by GM3104A cells of the same substance?
**A.** 460 pg/mL
